According to patent US9150655B2, “Anti-C-met antibody and methods of use thereof” (ACADEMIA SINICA, priority 2010, dated 2015):

What was measured:
[1] = target: T1, c-Met567-Fc protein (Homo sapiens, UniProt P08581); assay: Epitope ELISA on c-Met932-Fc and c-Met567-Fc; assay type: binding; conditions: immobilized recombinant proteins
T1 construct: DNA fragments encoding amino acid residues 1 to 932 and 1 to 567 of c-Met were amplified by PCR; made in house; host or cells: 293T cells, transient transfection, protein G purification from supernatant
Description: Therefore, binding epitopes of anti-c-Met scFvs localized within HGF binding domain of c-Met were investigated. The binding ability of anti-c-Met scFvs was examined for c-Met932-Fc protein including whole extracellular domain of c-Met, and c-Met567-Fc protein containing Sema and PSI domain, both of which have been defined as HGF binding regions (FIG. 2, panel C). The c-Met recombinant proteins were immobilized on titer wells, and incubated with anti-c-Met scFvs. Anti-c-Met polyclonal antibody and anti-E tag antibody was used as a positive and negative control, respectively. […] The binding intensity of S1 for c-Met932-Fc was similar to that for c-Met567-Fc.

[2] = target: T2, c-Met932-Fc protein (Homo sapiens, UniProt P08581); assay: Binding kinetics of anti-c-Met scFv by SPR (BIAcore)
T2 construct: DNA fragments encoding amino acid residues 1 to 932 and 1 to 567 of c-Met were amplified by PCR; made in house; host or cells: 293T cells, transient transfection, protein G purification from supernatant
Description: The affinity and kinetics of anti-c-Met scFv were measured by SRP in BIAcore X (GE healthcare). In BIAcore flowcell, 30 μg/ml of c-MetF932-Fc protein was coupled to EDC- and NHS-activated CM5 sensor chip followed by blocking with ethanolamine according to manufacturer's directions. Associated and dissociated phases were monitored for 3 and 5 min, respectively, under continuous flow of 30 μl/min using scFv concentrations ranging 5 to 200 nM. Regeneration was performed by injection of regenerate buffer (0.2 M NaCl, 10 mM glycine, pH 2.7). To determine binding constants, the sensorgrams were fit globally to a sample 1:1 interaction model using BIAevaluation software (GE healthcare).
Binding kinetic constants (Kon and Koff) and affinity of each soluble scFv for c-Met932-Fc protein were measured by Surface Plasmon Resonance (SPR).
Kon and Koff were measured by SRP in a BIAcore using purified scFvs, and the Kd was calculated by BIAevaluation software.

[3] = target: T3, c-MetF932-Fc protein (Homo sapiens, UniProt P08581); assay: Competitive ELISA: soluble scFv inhibit HGF binding to immobilized c-Met protein; conditions: different concentrations of soluble scFv
T3 construct: DNA fragments encoding amino acid residues 1 to 932 and 1 to 567 of c-Met were amplified by PCR; made in house; host or cells: 293T cells, transient transfection, protein G purification from supernatant
Description: To monitor inhibition effect of scFv, we coated the c-MetF932-Fc protein on a 96-well plate and blocked nonspecific binder with 3% BSA in PBS. 1 nM human HGF (R&D) plus varying concentrations of anti-c-Met scFv or normal mouse IgG were applied to the wells. The amount of HGF bound to c-Met was determined using goat anti-human HGF (R&D), following incubation of HRP-labeled mouse anti-goat IgG (Jackson ImmunoResearch) and OPD substrate (Sigma) plus H2O2. The absorbance was measured with 490 nm using a microplate reader. Inhibition percentage was calculated by the following equation: [(the absorbance of HGF bound without competitor)−(the absorbance of HGF bound with competitor)]/(the absorbance of HGF bound without competitor)×100%.
(§1) To test whether the three anti-c-Met scFvs could inhibit HGF binding to c-Met, the human lung cancer cell line H1993 was chosen to undergo competition ELISA (Lutterbach B et al. (2007) Cancer Res 67:2081-2088). […] HGF binding to H1993 cells without competitors was considered 100%. H1993 is known to express a high level of c-Met. When H1993 cells were incubated with HGF in the presence of the phage clones, the binding of HGF to H1993 cells was diminished by more than 90% by the anti-c-Met scFv PC1. PC20 inhibited more than 50% of HGF binding to c-Met (FIG. 2, panel A). The competitive inhibition of HGF by different concentrations of soluble scFvs was also tested. Normal mouse IgG (NMIgG) was used as a negative control. HGF binding to immobilized c-Met protein without competitors was considered 100%.

[4] = target: T4, c-Met-Fc protein (Homo sapiens, UniProt P08581); assay: Phage ELISA for binding to c-Met-Fc protein; conditions: same phage titer
T4 construct: Fc; purchased R&D
Description: Selection of phages displaying specific anti-c-Met scFv was performed by protein G dynabeads (Invitrogen). c-Met-Fc recombinant protein (R&D) was incubated with protein G dynabeads at room temperature (RT) for 1 hr. The scFv library (2×10^9 members) was subtracted non-specific binding in protein G dynabeads and subsequently incubated with c-Met-Fc immobilized dynabeads for 1 hr at 4° C. Unbound phages were removed by washing 4 times with PBST. The phages that bound to c-Met-Fc were recovered by infection with E. coli TG1 cells at 37° C. for 30 min. Part of the infected cells were serial diluted to determine titer, and the others were rescued by M13KO7 helper phage (NEB). […]
To examine the specificity and binding affinity of the three phage clones, a comparative ELISA using the same phage titer was performed. […] The three clones were assessed for binding to cell-surface c-Met by flow cytometry and immunofluorescence assay using 293T cells ectopically expressing human c-Met. […] Soluble anti-c-Met scFvs were purified from periplasmic extract of phage-infected E-coli HB2151 by protein L agarose chromatography, and then assessed by coomassie blue staining representing purified anti-c-Met scFv proteins (S1, S20 and S21) localized in vicinity of 30 kDa corresponding to protein weight marker (upper panel of FIG. 8, panel B).

[5] = target: T5, 293T cells ectopically expressing human c-Met (Homo sapiens, UniProt P08581); assay: Phage binding to c-Met-overexpressing 293T cells (flow cytometry, immunofluorescence); assay type: cell-based; conditions: 293T overexpressing c-Met vs 293T; flow cytometry and immunofluorescence
T5 construct: The DNA encoding full-length c-Met was amplified by PCR; expressed in transfected cells; host or cells: 293T cells transfected with pEF-c-Met expression vector
Description: For immunofluorescence staining assay, 293T cells were grown on coverslips to 80% confluence. Transfection of the cells with pEF-c-Met expression vector was performed using Lipofectamin 2000 (Invitrogen) according to manufacturer's instructions. At 48 hrs post-transfection, the cells were incubated with the selected anti-c-Met phage or control phage, by 1×10^10 phage titer for 30 min at 4° C. After the cells were washed twice with PBS, they were fixed by 4% paraformaldehyde, permeabilized with 0.1% TritonX-100 and blocked with 3% BSA. […] The fluorescence images were captured by inverted fluorescence microscope (Axiovert 200M, Zeiss).
For flow cytometry analysis, 293T cells were grown to 80% confluence and transfected with pEF-c-Met expression vector as described above. […] Analysis was performed using FACSCantoll (BD) and emission fluorescence intensity was measured by FACSDiva software (BD) to quantitatively compare their binding affinities
To examine the specificity and binding affinity of the three phage clones, a comparative ELISA using the same phage titer was performed. […] The three clones were assessed for binding to cell-surface c-Met by flow cytometry and immunofluorescence assay using 293T cells ectopically expressing human c-Met. […]

[6] = target: T6, c-Met expressed on H1993 cells (Homo sapiens, UniProt P08581); assay: Competition ELISA: phage clones inhibit HGF binding to H1993 cells; conditions: phage-displayed scFv; HGF binding without competitors = 100%
T6 construct: H1993 is known to express a high level of c-Met; endogenous in cells; host or cells: H1993
Description: as §1

[7] = purified scFv, c-MetF932-Fc on CM5 chip

T2 sequence (P08581 25-307): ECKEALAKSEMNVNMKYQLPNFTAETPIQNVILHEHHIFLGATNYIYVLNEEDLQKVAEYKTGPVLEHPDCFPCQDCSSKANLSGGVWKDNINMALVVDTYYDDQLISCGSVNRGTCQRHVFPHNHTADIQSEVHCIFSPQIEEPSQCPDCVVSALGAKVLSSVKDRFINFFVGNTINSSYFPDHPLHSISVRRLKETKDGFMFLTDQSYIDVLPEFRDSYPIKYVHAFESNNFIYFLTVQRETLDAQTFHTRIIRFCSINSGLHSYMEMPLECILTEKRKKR
T2 sequence (P08581 308-932): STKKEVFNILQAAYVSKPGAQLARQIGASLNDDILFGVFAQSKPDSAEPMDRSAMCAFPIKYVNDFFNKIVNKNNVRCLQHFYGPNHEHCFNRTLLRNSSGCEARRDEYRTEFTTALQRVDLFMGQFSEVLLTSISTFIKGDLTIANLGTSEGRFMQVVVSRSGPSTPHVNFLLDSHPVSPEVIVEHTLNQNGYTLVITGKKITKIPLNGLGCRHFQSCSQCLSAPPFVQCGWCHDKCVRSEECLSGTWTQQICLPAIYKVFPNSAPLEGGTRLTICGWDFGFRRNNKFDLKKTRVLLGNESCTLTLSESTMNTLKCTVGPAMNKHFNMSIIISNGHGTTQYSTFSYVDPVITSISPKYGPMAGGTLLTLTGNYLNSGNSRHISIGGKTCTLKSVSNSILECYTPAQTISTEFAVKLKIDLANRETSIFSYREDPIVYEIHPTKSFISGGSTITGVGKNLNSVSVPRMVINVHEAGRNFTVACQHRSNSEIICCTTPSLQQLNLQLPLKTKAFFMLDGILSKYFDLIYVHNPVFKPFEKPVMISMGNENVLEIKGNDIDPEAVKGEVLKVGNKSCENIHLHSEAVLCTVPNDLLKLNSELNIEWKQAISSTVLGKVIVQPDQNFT
T4 sequence (P08581 with tags, fused parts or gaps limits assumed): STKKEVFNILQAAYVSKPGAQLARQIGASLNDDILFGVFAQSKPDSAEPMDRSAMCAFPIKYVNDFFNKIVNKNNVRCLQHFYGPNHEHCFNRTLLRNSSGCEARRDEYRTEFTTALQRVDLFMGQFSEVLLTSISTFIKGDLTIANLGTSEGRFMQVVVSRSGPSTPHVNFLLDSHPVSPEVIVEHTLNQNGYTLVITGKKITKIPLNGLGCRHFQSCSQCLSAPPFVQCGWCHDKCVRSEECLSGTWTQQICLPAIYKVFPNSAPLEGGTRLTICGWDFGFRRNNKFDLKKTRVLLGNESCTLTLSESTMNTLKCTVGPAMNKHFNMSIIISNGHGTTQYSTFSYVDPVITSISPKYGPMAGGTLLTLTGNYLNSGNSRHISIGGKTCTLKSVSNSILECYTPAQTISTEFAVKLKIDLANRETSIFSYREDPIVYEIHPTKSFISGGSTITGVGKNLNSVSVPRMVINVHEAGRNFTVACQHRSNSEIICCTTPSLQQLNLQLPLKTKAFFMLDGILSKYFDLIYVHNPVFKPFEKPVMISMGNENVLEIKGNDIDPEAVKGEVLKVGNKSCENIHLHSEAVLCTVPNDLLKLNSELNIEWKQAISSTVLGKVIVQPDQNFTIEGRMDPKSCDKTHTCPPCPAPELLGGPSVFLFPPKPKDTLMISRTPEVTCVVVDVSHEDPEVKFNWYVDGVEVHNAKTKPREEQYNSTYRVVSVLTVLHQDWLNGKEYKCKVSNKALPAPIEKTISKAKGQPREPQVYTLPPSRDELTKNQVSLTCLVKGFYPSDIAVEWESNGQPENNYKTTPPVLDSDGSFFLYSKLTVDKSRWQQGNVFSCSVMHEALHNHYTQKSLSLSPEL
T4 sequence (P08581 25-307 limits assumed): as the sequence (P08581 25-307) above
T3 sequence (P08581 25-307 limits assumed): as the sequence (P08581 25-307) above
T3 sequence (P08581 308-932 limits assumed): as the sequence (P08581 308-932) above
T1 sequence (P08581 25-567): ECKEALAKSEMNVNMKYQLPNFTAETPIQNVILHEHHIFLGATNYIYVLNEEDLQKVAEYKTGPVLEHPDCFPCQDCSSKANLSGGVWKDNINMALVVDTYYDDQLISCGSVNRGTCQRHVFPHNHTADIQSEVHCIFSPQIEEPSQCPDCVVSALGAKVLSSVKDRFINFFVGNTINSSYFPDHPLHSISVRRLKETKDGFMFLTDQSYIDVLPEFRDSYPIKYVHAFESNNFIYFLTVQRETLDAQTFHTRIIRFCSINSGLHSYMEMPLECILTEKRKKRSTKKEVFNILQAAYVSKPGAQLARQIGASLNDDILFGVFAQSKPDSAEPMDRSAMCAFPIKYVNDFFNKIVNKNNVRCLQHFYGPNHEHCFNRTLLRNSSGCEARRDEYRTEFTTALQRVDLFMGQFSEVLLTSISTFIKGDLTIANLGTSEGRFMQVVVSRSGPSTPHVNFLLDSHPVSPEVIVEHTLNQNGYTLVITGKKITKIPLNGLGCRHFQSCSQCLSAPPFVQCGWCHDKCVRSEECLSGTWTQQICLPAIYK
T6 sequence (P08581 25-1390): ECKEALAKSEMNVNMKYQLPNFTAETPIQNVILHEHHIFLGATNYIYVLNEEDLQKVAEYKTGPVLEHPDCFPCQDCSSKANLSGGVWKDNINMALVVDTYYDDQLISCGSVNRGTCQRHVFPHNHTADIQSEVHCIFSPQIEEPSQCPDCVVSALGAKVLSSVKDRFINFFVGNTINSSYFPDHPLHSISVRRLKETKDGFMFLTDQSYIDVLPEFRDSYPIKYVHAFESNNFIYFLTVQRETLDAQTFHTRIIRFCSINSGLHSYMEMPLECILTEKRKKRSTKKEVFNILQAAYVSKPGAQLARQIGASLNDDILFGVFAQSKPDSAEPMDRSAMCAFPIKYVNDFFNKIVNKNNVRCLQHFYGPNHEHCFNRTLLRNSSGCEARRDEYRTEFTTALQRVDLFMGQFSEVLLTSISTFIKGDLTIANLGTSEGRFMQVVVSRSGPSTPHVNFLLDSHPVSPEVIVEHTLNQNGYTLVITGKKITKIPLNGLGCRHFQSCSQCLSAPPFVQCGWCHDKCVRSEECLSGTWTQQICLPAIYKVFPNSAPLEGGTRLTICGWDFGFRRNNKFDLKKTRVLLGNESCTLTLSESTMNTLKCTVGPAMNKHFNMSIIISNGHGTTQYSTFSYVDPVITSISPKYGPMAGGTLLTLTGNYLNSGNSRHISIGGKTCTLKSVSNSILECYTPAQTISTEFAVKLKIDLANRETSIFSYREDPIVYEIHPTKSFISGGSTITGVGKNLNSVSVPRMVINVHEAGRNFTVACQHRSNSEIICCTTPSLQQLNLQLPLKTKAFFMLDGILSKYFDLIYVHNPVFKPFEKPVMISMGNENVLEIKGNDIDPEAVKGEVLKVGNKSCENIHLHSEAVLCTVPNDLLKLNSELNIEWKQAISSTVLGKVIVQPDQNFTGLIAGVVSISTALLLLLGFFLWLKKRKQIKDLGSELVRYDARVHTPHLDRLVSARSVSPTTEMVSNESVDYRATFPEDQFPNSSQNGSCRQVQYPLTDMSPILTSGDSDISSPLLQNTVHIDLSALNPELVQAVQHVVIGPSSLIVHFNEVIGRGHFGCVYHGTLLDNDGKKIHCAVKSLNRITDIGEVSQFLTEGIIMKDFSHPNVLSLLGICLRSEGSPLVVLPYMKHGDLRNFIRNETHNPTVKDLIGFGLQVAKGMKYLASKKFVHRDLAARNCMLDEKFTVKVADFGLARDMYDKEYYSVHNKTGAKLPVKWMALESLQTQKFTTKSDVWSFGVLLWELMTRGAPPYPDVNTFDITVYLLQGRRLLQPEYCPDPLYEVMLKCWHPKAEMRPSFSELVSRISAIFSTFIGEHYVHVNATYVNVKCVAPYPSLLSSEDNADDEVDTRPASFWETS

Row | Molecule | Binding to c-Met567-Fc compared to c-Met932-Fc [1] | Kd ([2]; purified scFv 5 to 200 nM, c-MetF932-Fc coupled to CM5 chip, Kd calculated by BIAevaluation software) [nM] | Koff [2, 7] [s⁻¹] | Kon [2, 7] [M⁻¹ s⁻¹] | Inhibition of binding activity of HGF to c-Met [3] | c-Met binding affinity in comparative ELISA [4] | Binding to cellular c-Met on 293T cells [5] | Inhibition of HGF binding to H1993 cells [6]
1 | S21: soluble anti-c-Met scFv corresponding to phage clone PC21; VH/VL sequences in Table 1 (protein, left off: small tags and cut ends) scFv: MAEVQLVESGPGLVKPSGTLSLKCDASAISMDSNYWWSWLRQPPGKGLEWIGEISHSGSTDYNPSLKSRATISIDKSKKQFFLRLKSVTAADTAVYYCAGLLSPLDAFDEWGQGTMVTVGGGGSGGGGSGGGGSDIQMTQSPSSLSASVGDRVTITCRASQRVATYLNWYQQKPGKAPNLLIYEASSLQSGVPSRFSGRRSGTDFTLTISSLQPEDFATYYCQQSYNTPYTFGQGTRLEIKR | dramatically decreased | 14.9 | 0.00389 | 261000 | only slightly inhibited | – | – | –
2 | PC1: phage-displayed anti-c-Met scFv, phage clone 1 (protein, left off: large carriers) scFv: MAQVQLQQSGPGLVKPSQTLSLTCDISGDSVSSNSAAWNWIRQSPSRGLEWLGRTYYRSRWYNEYAVSVRGRISINAETSKNQFSLQLNSVTPEDTAIYYCARAGFCSGGNCYPGSEDAFDLWGQGTMVTVGGGGSGGGGSGGGGSDVVMTQSPPSLSVSVGDRVTITCRASQDITNDLNWYQQKPGKAPQLLIYHASELETGVPSRFSGSGFGTDFTLTISSLQPADIATYYCQQYDDLPLTFGGGTKVEIKR | – | – | – | – | – | stronger c-Met binding affinity than either PC20 or PC21 | higher than that of PC20 and PC21 | more than 90%
